Legend:
[1] = target: T1, human RANKL (receptor activator of NF-κB ligand) (human, UniProt O14788 140-317, limits assumed); experiment: SPR (BIACORE), purified antibody, 37°C
T1 construct: also called hRANKL; hRANKL native trimer
T1 sequence: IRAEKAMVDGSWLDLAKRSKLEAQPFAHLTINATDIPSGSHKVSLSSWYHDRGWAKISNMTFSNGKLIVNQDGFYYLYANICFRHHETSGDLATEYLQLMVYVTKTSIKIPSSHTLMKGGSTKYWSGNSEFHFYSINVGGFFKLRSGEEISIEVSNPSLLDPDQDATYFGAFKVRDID

[2] = target: T2, penta-his-tagged monkey (Macaca fascicularis) RANKL (Macaca fascicularis, UniProt O14788 125-317 (human entry)); experiment: competition ELISA: 150 pM his-mfRANKL pre-mixed with antibody, free RANKL detected on hRANK-hFc plate
T2 construct: also called his-mfRANKL; mfRANKL; not shown: penta-his tag
T2 chain: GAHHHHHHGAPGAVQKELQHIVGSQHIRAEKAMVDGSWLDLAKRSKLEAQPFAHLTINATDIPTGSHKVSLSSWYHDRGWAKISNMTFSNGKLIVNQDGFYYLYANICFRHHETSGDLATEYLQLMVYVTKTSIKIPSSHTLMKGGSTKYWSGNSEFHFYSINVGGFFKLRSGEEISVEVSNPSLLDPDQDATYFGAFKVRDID
Method: (§1) Briefly, hRANK-hFc protein was coated on a 96-well plate in PBS buffer overnight at 4° C. at 2 μg/ml, and nonspecific binding was blocked with BSA, to form a hRANK-hFc surface.

penta-his-tagged hRANKL = target: T3, penta-his-tagged hRANKL (human); experiment: competition ELISA: 150 pM his-hRANKL pre-mixed with antibody, free RANKL detected on hRANK-hFc plate
T3 construct: also called his-hRANKL; not shown: penta-his tag
T3 chain: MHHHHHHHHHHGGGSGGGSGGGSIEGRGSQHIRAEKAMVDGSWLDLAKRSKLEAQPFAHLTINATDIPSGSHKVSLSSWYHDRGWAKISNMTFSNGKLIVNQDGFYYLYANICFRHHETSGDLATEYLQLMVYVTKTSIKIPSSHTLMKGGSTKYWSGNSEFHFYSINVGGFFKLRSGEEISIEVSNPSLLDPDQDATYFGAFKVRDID
Method: as §1

[3] = target: T1, human RANKL (receptor activator of …); experiment: cell-based or functional assay
[4] = target: T1, human RANKL (receptor activator of …); experiment: SPR (BIACORE), purified antibody, 25°C
[5] = target: T1, human RANKL (receptor activator of …); experiment: SPR (BIACORE 2000), antibody captured on anti-hFc, hRANKL injected
Method: Equilibrium dissociation constants (KD values) for antigen binding to the selected antibodies generated by hybridoma cell lines described above were determined by surface kinetics in a real-time biosensor surface plasmon resonance assay (BIACORE™ 2000). Each selected antibody was captured on a goat anti-mouse IgG polyclonal antibody surface created through direct chemical coupling to a BIACORE™ chip to form a captured antibody surface.
Each selected antibody was captured on a goat anti-hFc polyclonal antibody (Jackson Immuno Research Lab) surface created through direct chemical coupling to a BIACORE™ chip to form a captured antibody surface (Table 2).

B1: H4H002P (antibody, V domains shown)
VH: QVQLVESGGGVVQPGRSLRLSCAASGFTFTGYGMHWVRQAPDKGLEWVAVISYDGTNKYYVDSVKGRFTISRDNSQNTLYLQMNSLRAEDTAVYYCAKCLSGTYWGYGMDVWGQGTTVTVS
VL: DIQMTQSPSTLSASVGDRVTITCRASRSINSWLAWYQQKPGKAPKLLIYKASSLESGVPSRFSGSGSGTEFTLTISSLQPDDFASYYCQQYNNYSWTFGQGTKVEIK
notes: Purified antibody from clone 1F8
Kd [1]: 0.0531 nM
IC50 [2]: 1.36 nM
IC50 (penta-his-tagged hRANKL): 0.165 nM
IC50, hRANKL-inducible luciferase activity in HK293/RANK/NFκB-luc-eGFP cells [3]: 0.214 nM
Kd [4]: 0.262 nM

B2: H4H005G (antibody, V domains shown)
VH: QVQLVESGGGVVQPGRSLRLSCAASGFTFSGYGMHWVRQAPGKGLEWVAVISYDGINKYYADSVKGRFTISRDNSKNTLYLQMNSLRAEDTAVYYCAKCLSGSYWGFGMDVWGQGTTVTVS
VL: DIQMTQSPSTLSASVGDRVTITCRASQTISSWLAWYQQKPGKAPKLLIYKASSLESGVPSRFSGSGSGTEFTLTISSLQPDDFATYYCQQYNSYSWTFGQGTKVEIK
notes: Purified antibody from clone 2E10
Kd [1]: 0.0241 nM
IC50 [2]: 9.59 nM
IC50 (penta-his-tagged hRANKL): 3.13 nM
IC50, hRANKL-inducible luciferase activity in HK293/RANK/NFκB-luc-eGFP cells [3]: 1.06 nM
Kd [4]: 0.0762 nM

B3: H4H005P (antibody, V domains shown)
VH: QVQLVESGGGVVHPGRSLTLSCAASGFTFSGYGMHWVRQAPGKGLEWVAVISYDGINKYYADSVKGRFTISRDNSKNTLYLQMNSLRAEDTAIYYCAKCLSGSYWGFGMDVWGQGTTVTVS
VL: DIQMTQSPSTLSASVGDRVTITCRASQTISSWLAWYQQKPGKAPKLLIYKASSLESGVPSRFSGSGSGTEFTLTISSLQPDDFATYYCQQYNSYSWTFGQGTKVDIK
notes: as for B2
Kd [1]: 0.0453 nM
IC50 [2]: 4.32 nM
IC50 (penta-his-tagged hRANKL): 1.16 nM
IC50, hRANKL-inducible luciferase activity in HK293/RANK/NFκB-luc-eGFP cells [3]: 1.17 nM
Kd [4]: 0.601 nM

B4: H4H006G (antibody, V domains shown)
VH: QVQLVESGGGVVQPGRSLRLSCAASGFTFGGYGMHWVRQAPGKGLEWVAVISYDGNNKYYADSVKGRFTISRDNSKNTLYLQMNSLRAEDTAVYYCAKCLSGTYWGYGMDGWGQGTTVTVS
VL: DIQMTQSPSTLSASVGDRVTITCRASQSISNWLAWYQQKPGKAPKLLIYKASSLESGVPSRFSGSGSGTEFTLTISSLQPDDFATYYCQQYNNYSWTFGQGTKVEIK
notes: Purified antibody from clone 2E11
Kd [1]: 0.0415 nM
IC50 [2]: 1.24 nM
IC50 (penta-his-tagged hRANKL): 0.195 nM
IC50, hRANKL-inducible luciferase activity in HK293/RANK/NFκB-luc-eGFP cells [3]: 0.171 nM
Kd [4]: 0.265 nM

B5: H4H006P (antibody, V domains shown)
VH: QVQLVESGGGVVQPGRSLRLSCAASGFTFGGYGMHWVRQAPDKGLEWVAVISYDGNNKYYVDSVKGRFTISRDNSKNMLYLQMNSLRAEDTAVYYCAKCLSGTYWGYGMDGWGQGTTVTVS
VL: DIQMTQSPSTLSASVGDRVTITCRASQSISNWLAWYQQKPGKAPKLLIYKASNLQSGVPSRFSGSGSGTEFTLTISSLQPDDFATYYCQQYNNYSWTFGQGTKVEIK
notes: as for B4
Kd [1]: 0.044 nM
IC50 [2]: 0.42 nM
IC50 (penta-his-tagged hRANKL): 0.085 nM
IC50, hRANKL-inducible luciferase activity in HK293/RANK/NFκB-luc-eGFP cells [3]: 0.08 nM
Kd [4]: 0.172 nM

B6: H4H007P (antibody, V domains shown)
VH: QVQLVESGGGVVQPGRSLRLSCAASGFTFSGYGMHWVRQAPGMGLEWVAVISYDGINKYYADSVKGRFTISRDNSKNTLFLQMNSLRAEDTALYYCAKCLSGTYWGYGMDVWGQGTTVTVS
VL: DIQMTQSPSTLSASVGDRVTITCRASQSISSWLAWYQLKPGKAPKLLIYKASSLESGVPSRFGGSGSGTEFTLTISSLQPDDFATYYCQHYNSYSWTFGQGTKVEIK
notes: Purified antibody from clone 2E12
Kd [1]: 0.0578 nM
IC50 [2]: 2.76 nM
IC50 (penta-his-tagged hRANKL): 0.335 nM
IC50, hRANKL-inducible luciferase activity in HK293/RANK/NFκB-luc-eGFP cells [3]: 0.452 nM
Kd [4]: 0.335 nM

B7: H4H009G (antibody, V domains shown)
VH: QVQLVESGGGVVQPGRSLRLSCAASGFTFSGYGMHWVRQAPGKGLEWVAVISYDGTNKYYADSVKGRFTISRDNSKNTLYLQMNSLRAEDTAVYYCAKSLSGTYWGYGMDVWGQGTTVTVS
VL: DIQMTQSPSTLSASVGDRVTITCRASQNIGNWLAWYQQKPGKAPKLLIYKASSLESGVPSRFSGSGSGTEFTLTISSLQPDDFATYYCQRYNSYSWTFGQGTKVEIK
notes: Purified antibody from clone 2H10
Kd [1]: 0.0424 nM
IC50 [2]: 0.875 nM
IC50 (penta-his-tagged hRANKL): 0.065 nM
IC50, hRANKL-inducible luciferase activity in HK293/RANK/NFκB-luc-eGFP cells [3]: 0.102 nM
Kd [4]: 0.198 nM

B8: H4H010P (antibody, V domains shown)
VH: QVQLVESGGGVVQPGRSLRLSCAASGFTFSGYGMHWVRQAPGKGLDWVTVISYDGSNKHYADSVKGRFTISRDNSKNTLYLQMSSLGPEDTAVYYCAKSLSGTYWGYGMDVWGQGTTVTVS
VL: DIQMTQSPSTLSASVGDRVTITCRASQNISSWLAWYQQKPGKAPKLLIYKASSLESGVPSRFSGSGSGTEFTLTVSSLQPDDFATYYCQQYNRYSWTFGQGTKVEIK
notes: Purified antibody from clone 2H12
Kd [1]: 0.0779 nM
IC50 [2]: 0.15 nM
IC50 (penta-his-tagged hRANKL): 0.045 nM
IC50, hRANKL-inducible luciferase activity in HK293/RANK/NFκB-luc-eGFP cells [3]: 0.051 nM
Kd [4]: 0.0697 nM

B9: 2H10 (antibody, V domains shown)
VH: QVQLVESGGGVVQPGRSLRLSCAASGFTFSGYGIHWVRQAPDKGLEWVAVISYDGTNKYYGDSVKGRFTISRDNTKNTLYLQMNSLRTEDTAVYYCAKSLSGTYWGYGMDVWGQGTTVTVSS
VL: AIQMTQSPSTLSASVGDRVTITCRASQNIGNWLAWYQQKPGKAPKLLIYKASSLQNGVPSRFSGSGSGTEFTLTISSLQPDDFATYYCQRYNSYSWTFGQGTKVEIK
notes: From direct isolation of splenocytes; captured on anti-hFc; also called H4H009N
Kd [5]: 0.0158 nM

B10: 1F8 (antibody, V domains shown)
VH: QVQLVQSGGGVVQPGRSLRLSCAASGFTFTGYGMHWVRQAPDKGLEWVAVISYDGTNKYYVDSVKGRFTISRDNSQNTLYLQMNSLRAEDTAVYYCAKCLSGTYWGYGMDVWGQGTTVTVSS
VL: AIQMTQSPSTLSASVGDRVTITCRASRSINSWLAWYQQKPGKAPKLLIYKASSLESGVPSRFSGSGSGTEFTLTISSLQPDDFASYYCQQYNNYSWTFGQGTKVEIK
notes: From direct isolation of splenocytes; captured on anti-hFc; also called H4H002N
Kd [5]: 0.00785 nM

B11: 2E10 (antibody, V domains shown)
VH: QVQLVQSGGGVVHPGRSLTLSCAASGFTFSGYGMHWVRQAPGKGLEWVAVISYDGINKYYADSVKGRFTISRDNSKNTLYLQMNSLRAEDTAIYYCAKCLSGSYWGFGMDVWGQGTTVTVSS
VL: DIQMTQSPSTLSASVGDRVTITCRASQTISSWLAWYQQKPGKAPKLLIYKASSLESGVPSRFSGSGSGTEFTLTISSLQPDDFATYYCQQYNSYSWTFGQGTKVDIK
notes: From direct isolation of splenocytes; captured on anti-hFc; also called H4H005N
Kd [5]: 0.0172 nM

B12: 2E11 (antibody, V domains shown)
VH: QVQLVQSGGGVVQPGRSLRLSCAASGFTFGGYGMHWVRQAPDKGLEWVAVISYDGNNKYYVDSVKGRFTISRDNSKNMLYLQMNSLRAEDTAVYYCAKCLSGTYWGYGMDGWGQGTTVTVSS
VL: DIQMTQSPSTLSASVGDRVTITCRASQSISNWLAWYQQKPGKAPKLLIYKASNLQSGVPSRFSGSGSGTEFTLTISSLQPDDFATYYCQQYNNYSWTFGQGTKVEIK
notes: From direct isolation of splenocytes; captured on anti-hFc; also called H4H006N
Kd [5]: 0.016 nM

B13: 2E12 (antibody, V domains shown)
VH: QVQLVQSGGGVVQPGRSLRLSCAASGFTFSGYGMHWVRQAPGMGLEWVAVISYDGINKYYADSVKGRFTISRDNSKNTLFLQMNSLRAEDTALYYCAKCLSGTYWGYGMDVWGQGTTVTVSS
VL: AIQMTQSPSTLSASVGDRVTITCRASQSISSWLAWYQLKPGKAPKLLIYKASSLESGVPSRFGGSGSGTEFTLTISSLQPDDFATYYCQHYNSYSWTFGQGTKVEIK
notes: From direct isolation of splenocytes; captured on anti-hFc; also called H4H007N
Kd [5]: 0.0957 nM

B14: 2G10 (antibody, V domains shown)
VH: QVQLVQSGGGVVQPGRSLRLSCAASGFTFSGFGMHWVRQAPGKGLEWVAIISYDGRNKYYADSVKGRFTISRDNSKNTLYLQMNSLRAEDTAVYYCAKSLSGTYWGYGMDVWGQGTTVTVSS
VL: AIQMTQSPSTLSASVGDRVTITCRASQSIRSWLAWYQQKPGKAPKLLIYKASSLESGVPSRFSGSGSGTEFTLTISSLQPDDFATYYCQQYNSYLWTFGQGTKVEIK
notes: From direct isolation of splenocytes; captured on anti-hFc; also called H4H008N
Kd [5]: 0.028 nM

B15: 2H12 (antibody, V domains shown)
VH: QVQLVQSGGGVVQPGRSLRLSCAASGFTFSGYGMHWVRQAPGKGLDWVTVISYDGSNKHYADSVKGRFTISRDNSKNTLYLQMSSLGPEDTAVYYCAKSLSGTYWGYGMDVWGQGTTVTVSS
VL: AIQMTQSPSTLSASVGDRVTITCRASQNISSWLAWYQQKPGKAPKLLIYKASSLESGVPSRFSGSGSGTEFTLTVSSLQPDDFATYYCQQYNRYSWTFGQGTKVEIK
notes: From direct isolation of splenocytes; captured on anti-hFc; also called H4H010N
Kd [5]: 0.0331 nM

Source: patent US20120114665A1 (Regeneron, published 2012)
